Bridge positions count the residues as written; N and C are the ends. Ends that are not written are not given here.
Target: 447-52D Fv fragment
Test: fluorescence quenching of 447Fv upon titration with the peptide

## CRKSIHCGPGRCFYTTGC (disulfide 1-18, 7-12) [R5A-M1 peptide (disulfide-constrained R5A mimic peptide 1)]
  Kd: 10 nM
